Laboratory results taken from paper PMC5389741 (Molecular cell, 2017).

T1: His-PGK1 (wild type, not acetylated) (human, UniProt P00558 1-417)
T1 sequence: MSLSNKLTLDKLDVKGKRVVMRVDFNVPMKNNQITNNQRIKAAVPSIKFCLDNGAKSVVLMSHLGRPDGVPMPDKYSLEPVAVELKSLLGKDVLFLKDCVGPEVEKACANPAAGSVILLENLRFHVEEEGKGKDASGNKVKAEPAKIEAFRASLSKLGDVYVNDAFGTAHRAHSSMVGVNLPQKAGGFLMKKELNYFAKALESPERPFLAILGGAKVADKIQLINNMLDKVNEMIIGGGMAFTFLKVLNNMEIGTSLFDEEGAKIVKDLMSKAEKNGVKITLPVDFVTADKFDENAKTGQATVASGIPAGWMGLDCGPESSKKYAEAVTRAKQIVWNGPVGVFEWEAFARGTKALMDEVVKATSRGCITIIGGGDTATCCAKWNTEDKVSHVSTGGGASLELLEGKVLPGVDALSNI


Tests used:
GST-Beclin1 = GST-Beclin1 (human, UniProt Q14457 1-450); experiment: pull-down
[1] = biological target: T1, His-PGK1 (wild type, not acetylated); experiment: pull-down

Sequence of GST-Beclin1 (Q14457 whole entry): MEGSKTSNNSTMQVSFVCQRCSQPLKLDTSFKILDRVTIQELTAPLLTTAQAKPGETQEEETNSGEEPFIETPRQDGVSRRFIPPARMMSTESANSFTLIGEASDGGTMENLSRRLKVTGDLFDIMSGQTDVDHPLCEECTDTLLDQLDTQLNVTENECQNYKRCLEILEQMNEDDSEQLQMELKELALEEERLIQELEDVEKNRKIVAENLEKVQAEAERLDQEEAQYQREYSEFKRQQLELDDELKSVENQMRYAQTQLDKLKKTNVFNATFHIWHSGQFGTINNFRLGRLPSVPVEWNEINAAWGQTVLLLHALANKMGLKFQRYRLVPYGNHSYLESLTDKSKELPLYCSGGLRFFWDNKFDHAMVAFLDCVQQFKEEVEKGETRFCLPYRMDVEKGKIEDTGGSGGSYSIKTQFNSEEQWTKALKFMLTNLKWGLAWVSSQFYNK

Row | binding result (GST-Beclin1) | binding result [1] | Binder
1 | binds |  | His-PGK1 acetylated by Flag-ARD1 and Ac-CoA in vitro (enzyme, human, acetyl-lysine at K388 (by ARD1 in vitro)) MSLSNKLTLDKLDVKGKRVVMRVDFNVPMKNNQITNNQRIKAAVPSIKFCLDNGAKSVVLMSHLGRPDGVPMPDKYSLEPVAVELKSLLGKDVLFLKDCVGPEVEKACANPAAGSVILLENLRFHVEEEGKGKDASGNKVKAEPAKIEAFRASLSKLGDVYVNDAFGTAHRAHSSMVGVNLPQKAGGFLMKKELNYFAKALESPERPFLAILGGAKVADKIQLINNMLDKVNEMIIGGGMAFTFLKVLNNMEIGTSLFDEEGAKIVKDLMSKAEKNGVKITLPVDFVTADKFDENAKTGQATVASGIPAGWMGLDCGPESSKKYAEAVTRAKQIVWNGPVGVFEWEAFARGTKALMDEVVKATSRGCITIIGGGDTATCCAKWNTEDKVSHVSTGGGASLELLEGKVLPGVDALSNI
2 |  | binds | GST-ARD1 (wild type) (enzyme, human, UniProt P41227 1-235, looked up) MNIRNARPEDLMNMQHCNLLCLPENYQMKYYFYHGLSWPQLSYIAEDENGKIVGYVLAKMEEDPDDVPHGHITSLAVKRSHRRLGLAQKLMDQASRAMIENFNAKYVSLHVRKSNRAALHLYSNTLNFQISEVEPKYYADGEDAYAMKRDLTQMADELRRHLELKEKGRHVVLGAIENKVESKGNSPPSSGEACREEKGLAAEDSGGDSKDLSEVSETTESTDVKDSSEASDSAS
3 |  | binds | GST-ARD1 S228A (enzyme, human, UniProt P41227 1-235, looked up) MNIRNARPEDLMNMQHCNLLCLPENYQMKYYFYHGLSWPQLSYIAEDENGKIVGYVLAKMEEDPDDVPHGHITSLAVKRSHRRLGLAQKLMDQASRAMIENFNAKYVSLHVRKSNRAALHLYSNTLNFQISEVEPKYYADGEDAYAMKRDLTQMADELRRHLELKEKGRHVVLGAIENKVESKGNSPPSSGEACREEKGLAAEDSGGDSKDLSEVSETTESTDVKDSAEASDSAS
